By EC50 is commonly meant the concentration that produces a half-maximal response. Lower therefore signals a more potent agent. As a reminder, the IC50 is the concentration that gives 50% inhibition.

2 molecules from patent US20210363257A1 (Pieris, published 2021) can be followed below.

Test [1] deals with T1, huPD-L1-His (human PD-L1 with a C-terminal polyhistidine tag) (human, UniProt Q9NZQ7 19-239).
T1 construct: Bought; also called biotinylated huPD-L1-His
The experiment in a line: dual-binding ELISA, huPD-L1-His coated, binder titrated, detection with biotinylated huCD137-His. As for the experimental part: (§1) Recombinant huPD-L1-His (R&D Systems) in PBS (1 μg/mL) was coated overnight on microtiter plates at 4° C. The plates were washed five times after each incubation step with 100 μL PBS-0.05% T. The plates were blocked with 2% BSA (w/v) in PBS-0.1% T for 1 h at room temperature and subsequently washed again. Different concentrations of tested fusion proteins were added to the wells and incubated for 1 h at room temperature, followed by a wash step. […] After washing, a 1:5000 dilution of ExtrAvidin-HRP (Sigma-Aldrich) in PBS-0.1% T-2% BSA was added to the wells and incubated for 1 h. After an additional wash step, fluorogenic HRP substrate (QuantaBlu, Thermo) was added to each well, and the fluorescence intensity was detected using a fluorescence microplate reader.

The target of test [2] is T2, cyPD-L1-His (cynomolgus PD-L1 with a C-terminal polyhistidine tag) (cynomolgus).
T2 construct: Bought
Put plainly: ELISA, cyPD-L1-His coated, detection anti-human IgG Fc-HRP. As for the experimental part: (§2) Recombinant huPD-L1-His or cyPD-L1-His (human or cynomolgus PD-L1 with a C-terminal polyhistidine tag, R&D Systems or Sino Biologics) at the concentration of 1 μg/mL in PBS was coated overnight on microtiter plates at 4° C. After washing with PBS-0.05% T (PBS supplemented with 0.05% (v/v) Tween 20), the plates were blocked with 2% BSA (w/v) in PBS-0.1% T (PBS supplemented with 0.1% (v/v) Tween 20) for 1 h at room temperature. […] Bound molecules under study were detected by incubation with 1:5000 diluted anti-human IgG Fc-HRP (Jackson Laboratory) in PBS-0.1% T-2% BSA. After an additional wash step, fluorogenic HRP substrate (QuantaBlu, Thermo) was added to each well and the fluorescence intensity was detected using a fluorescence microplate reader.
On the technique in general: ELISA stands for enzyme-linked immunosorbent assay.

Test [3] deals with T3, human PD-L1 expressed on cells (human, UniProt Q9NZQ7 19-290).
T3 construct: whole, on cells; also called Flp-In-CHO::huPDL-1; RKO cells
Put plainly: flow cytometry, RKO tumor cells (PD-L1-positive). As for the experimental part:
5×10⁴ cells per well were incubated for 1 h in ice-cold PBS containing 5% fetal calf serum (PBS-FCS). A dilution series of the fusion proteins and control antibodies were added to the cells and incubated for 1 h on ice. Cells were washed twice with PBS and then incubated with a goat anti-hIgG Alexa647-labeled antibody for 30 min on ice. Cells were subsequently washed and analyzed using iQue Flow cytometer (Intellicyte Screener). Mean geometric fluorescent signals were plotted and fitted with Graphpad software using nonlinear regression (shared bottom, SLOPE=1).
For flow cytometric analysis, RKO cells were incubated with fusion proteins and detected using a fluorescently labeled anti-human IgG antibody as described in Example 6.
For orientation: A flow cytometer gives signals particle by particle.

The target in test [4] is T4, huPD-L1-Fc (recombinant human PD-L1 Fc fusion) (human, UniProt Q9NZQ7 19-239).
T4 construct: Bought; also called tracer huPD-L1-Fc
Put plainly: competitive ELISA, huPD-1-His coated, 15 nM huPD-L1-Fc tracer, binder titrated. On the procedure:
Recombinant huPD-1-His (Acrobiosystems) in PBS (1 μg/mL) was coated overnight on microtiter plates at 4° C. The plates were washed five times after each incubation step with 100 μL PBS-0.05% T (PBS supplemented with 0.05% (v/v) Tween 20). The plates were blocked with 2% BSA (w/v) in PBS-0.1% T (PBS supplemented with 0.1% (v/v) Tween 20) for 1 h at room temperature and subsequently washed again. […] The mixtures of fusion proteins and the tracer were added to the plates and incubated for 20 min at room temperature following by five washing steps with 100 μL PBS-0.05% T. Subsequently, a 1:5000 dilution of goat-anti human IgG-Fc HRP (Jackson) was added to the wells and incubated for 1 h. After an additional wash step, fluorogenic HRP substrate (QuantaBlu, Thermo) was added to each well, and the fluorescence intensity was detected using a fluorescence microplate reader.

The target in test [5] is T1, huPD-L1-His (human PD-L1 with a …). Put plainly: ELISA, huPD-L1-His coated, detection anti-human IgG Fc-HRP. As for the experimental part:
as §2

The target is the same in test [6]. Put plainly: dual-binding ELISA, huPD-L1-His coated, binder titrated, detection with biotinylated huCD137-His; PD-L1 capture, CD137 detection (simultaneous binding of both targets). On the procedure: as §1
Test [7] has as its target T3, human PD-L1 expressed on cells. Put plainly: cell-based or functional assay.

T3 sequence (Q9NZQ7 19-290): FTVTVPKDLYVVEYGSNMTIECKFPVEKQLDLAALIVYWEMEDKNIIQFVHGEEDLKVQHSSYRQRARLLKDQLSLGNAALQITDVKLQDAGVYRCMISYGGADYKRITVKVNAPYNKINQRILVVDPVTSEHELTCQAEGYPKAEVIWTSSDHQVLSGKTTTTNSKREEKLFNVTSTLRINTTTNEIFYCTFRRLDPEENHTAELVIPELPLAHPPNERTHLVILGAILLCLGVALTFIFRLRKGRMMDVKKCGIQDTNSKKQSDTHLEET
T1 sequence (Q9NZQ7 19-239 limits assumed): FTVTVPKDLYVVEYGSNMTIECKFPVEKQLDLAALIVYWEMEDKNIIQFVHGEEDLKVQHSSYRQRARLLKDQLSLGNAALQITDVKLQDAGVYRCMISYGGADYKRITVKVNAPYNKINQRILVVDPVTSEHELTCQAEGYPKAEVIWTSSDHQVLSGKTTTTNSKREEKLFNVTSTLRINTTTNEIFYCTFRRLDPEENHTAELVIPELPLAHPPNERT
T4 sequence (Q9NZQ7 19-239 limits assumed): as above

B1: fusion protein SEQ ID NOs: 86 and 91 (bispecific antibody, human IgG4 S228P, kappa, F234A L235A)
heavy: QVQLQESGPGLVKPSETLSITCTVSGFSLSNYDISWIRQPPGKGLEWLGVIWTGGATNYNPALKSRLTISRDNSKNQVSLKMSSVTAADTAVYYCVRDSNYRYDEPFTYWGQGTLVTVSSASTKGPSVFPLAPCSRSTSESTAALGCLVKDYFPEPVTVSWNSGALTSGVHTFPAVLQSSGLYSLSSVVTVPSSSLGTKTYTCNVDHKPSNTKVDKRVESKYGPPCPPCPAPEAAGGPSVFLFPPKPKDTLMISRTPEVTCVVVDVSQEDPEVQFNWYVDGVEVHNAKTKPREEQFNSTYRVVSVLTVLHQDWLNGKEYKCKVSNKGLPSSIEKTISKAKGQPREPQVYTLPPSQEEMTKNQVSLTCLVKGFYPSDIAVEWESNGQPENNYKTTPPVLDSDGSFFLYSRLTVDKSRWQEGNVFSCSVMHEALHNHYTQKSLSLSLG
light: EIVLTQSPDTLSVTPKEKVTLTCRASQSIGTNIHWFQQKPGQSPKLLIKYASESISGVPSRFSGSGSGTDFTLTINSVEAEDAATYYCQQSNSWPYTFGQGTKLEIKRTVAAPSVFIFPPSDEQLKSGTASVVCLLNNFYPREAKVQWKVDNALQSGNSQESVTEQDSKDSTYSLSSTLTLSKADYEKHKVYACEVTHQGLSSPVTKSFNRGECGGGGSGGGGSGGGGSQDSTSDLIPAPPLSKVPLQQNFQDNQFHGKWYVVGQAGNIRLREDKDPIKMMATIYELKEDKSYDVTMVKFDDKKCMYDIWTFVPGSQPGEFTLGKIKSFPGHTSSLVRVVSTNYNQHAMVFFKFVFQNREEFYITLYGRTKELTSELKENFIRFSKSLGLPENHIVFPVPIDQCIDG
notes: Antibody-lipocalin mutein fusion, IgG4 S228P backbone; Bivalent to CD137
With B1, the EC50 in test [1] was 0.59 nM; in test [2] it was 0.18 nM; in test [3], 0.45 nM; in test [5], 0.23 nM. Moreover, in test [4], the IC50 turned out to be 3 nM.

B2: fusion protein SEQ ID NOs: 90 and 87 (bispecific antibody, human IgG4 S228P, kappa, F234A L235A)
heavy: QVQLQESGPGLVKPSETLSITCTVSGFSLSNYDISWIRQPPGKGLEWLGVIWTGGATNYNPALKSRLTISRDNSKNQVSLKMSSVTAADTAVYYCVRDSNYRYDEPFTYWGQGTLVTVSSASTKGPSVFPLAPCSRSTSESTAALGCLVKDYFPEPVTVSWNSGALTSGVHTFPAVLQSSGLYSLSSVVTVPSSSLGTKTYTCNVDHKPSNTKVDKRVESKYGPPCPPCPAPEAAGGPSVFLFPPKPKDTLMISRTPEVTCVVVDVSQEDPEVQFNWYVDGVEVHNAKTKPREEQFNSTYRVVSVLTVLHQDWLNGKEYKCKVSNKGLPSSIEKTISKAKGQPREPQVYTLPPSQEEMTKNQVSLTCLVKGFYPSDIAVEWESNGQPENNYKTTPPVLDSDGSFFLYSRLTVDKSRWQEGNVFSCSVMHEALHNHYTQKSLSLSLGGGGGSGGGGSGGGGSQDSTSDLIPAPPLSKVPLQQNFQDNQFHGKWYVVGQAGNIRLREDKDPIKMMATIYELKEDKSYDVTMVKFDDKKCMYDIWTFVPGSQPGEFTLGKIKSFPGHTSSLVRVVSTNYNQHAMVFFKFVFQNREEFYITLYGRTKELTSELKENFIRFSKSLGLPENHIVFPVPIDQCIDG
light: EIVLTQSPDTLSVTPKEKVTLTCRASQSIGTNIHWFQQKPGQSPKLLIKYASESISGVPSRFSGSGSGTDFTLTINSVEAEDAATYYCQQSNSWPYTFGQGTKLEIKRTVAAPSVFIFPPSDEQLKSGTASVVCLLNNFYPREAKVQWKVDNALQSGNSQESVTEQDSKDSTYSLSSTLTLSKADYEKHKVYACEVTHQGLSSPVTKSFNRGEC
notes: Bivalent to CD137
Consider B2, for which the concentration for a half-maximal effect (EC50) in test [6] amounted to 0.58 nM; in test [2] it was 0.13 nM; in test [3], 0.51 nM; in test [5], 0.15 nM. The “EC50 [nM] (PD-1/PD-L1 blockade bioassay, NFAT-RE-mediated luminescence)” value in test [7] is 0.49 nM. Further, the concentration for half-maximal inhibition (IC50) in test [4] is 2.3 nM.
